Reference: article PMC9951308
Starred links: 1 amine or outer side, 2 acyl side, 3 side chain; linkers in the order of their positions; H or OH if unused. Positions of bridges follow the written chain, without caps; N, C: chain ends. Residues, ends and D or L forms follow the SMILES beside them. TBMB = c1c(C[*:1])cc(C[*:3])cc1C[*:2]; mXylylene = c1cc(C[*:1])cc(C[*:2])c1

Experiment: circular dichroism
Details: PBS 10 mM; pH 7.4; 25 °C; 10 uM

Compound	helicity
CC(=O)N[C@@H](C)C(=O)N[C@@H](C)C(=O)N[C@@H](C)C(=O)N[C@@H](C)C(=O)N[C@@H](CCCCN)C(=O)N[C@@H](C)C(=O)N[C@@H](C)C(=O)N[C@@H](C)C(=O)N[C@@H](C)C(=O)N[C@@H](CCCCN)C(=O)N[C@@H](Cc1c[nH]c2ccccc12)C(=O)N[C@H]1CSCc2cc3cc(c2)CSC[C@H](NC(=O)[C@H](C)NC(=O)[C@H](C)NC1=O)C(=O)N[C@@H](C)C(=O)N[C@H](C(N)=O)CSC3 (Ac-AAAAKAAAAKWCAACAC-NH2; linker 12-15-17 via TBMB)	33%
CC(=O)N[C@@H](C)C(=O)N[C@@H](C)C(=O)N[C@@H](C)C(=O)N[C@@H](C)C(=O)N[C@@H](CCCCN)C(=O)N[C@@H](C)C(=O)N[C@@H](C)C(=O)N[C@@H](C)C(=O)N[C@@H](C)C(=O)N[C@@H](CCCCN)C(=O)N[C@@H](Cc1c[nH]c2ccccc12)C(=O)N[C@H]1CSCc2cc3cc(c2)CSC[C@H](NC(=O)[C@H](C)NC(=O)[C@H](C)NC1=O)C(=O)NCC(=O)N[C@H](C(N)=O)CSC3 (Ac-AAAAKAAAAKWCAACGC-NH2; linker 12-15-17 via TBMB)	65%
CC(=O)N[C@@H](C)C(=O)N[C@@H](C)C(=O)N[C@@H](C)C(=O)N[C@@H](C)C(=O)N[C@@H](CCCCN)C(=O)N[C@@H](Cc1c[nH]c2ccccc12)C(=O)N[C@H]1CSCc2cccc(c2)CSC[C@@H](C(N)=O)NC(=O)CNC(=O)[C@H](C)NC(=O)[C@H](C)NC(=O)[C@H](C)NC1=O (Ac-AAAAKWCAAAGC-NH2; linker 7-12 via mXylylene)	34%
CC(=O)N[C@@H](C)C(=O)N[C@@H](C)C(=O)N[C@@H](C)C(=O)N[C@@H](C)C(=O)N[C@@H](CCCCN)C(=O)N[C@@H](Cc1c[nH]c2ccccc12)C(=O)N[C@H]1CSCc2cccc(c2)CSC[C@@H](C(=O)NCC(=O)N[C@@H](C)C(N)=O)NC(=O)[C@H](C)NC(=O)[C@H](C)NC1=O (Ac-AAAAKWCAACGA-NH2; linker 7-10 via mXylylene)	33%
CC(=O)N[C@@H](C)C(=O)N[C@@H](C)C(=O)N[C@@H](C)C(=O)N[C@@H](C)C(=O)N[C@@H](CCCCN)C(=O)N[C@@H](Cc1c[nH]c2ccccc12)C(=O)N[C@H]1CSCc2cc3cc(c2)CSC[C@H](NC(=O)[C@H](C)NC(=O)[C@H](C)NC1=O)C(=O)NCC(=O)N[C@H](C(N)=O)CSC3 (Ac-AAAAKWCAACGC-NH2; linker 7-10-12 via TBMB)	59%
CC[C@H](C)[C@@H]1NC(=O)[C@@H](NC(=O)[C@H](C)NC(=O)[C@H](CC(C)C)NC(=O)[C@H](CCC(N)=O)NC(=O)[C@H](CCCNC(=N)N)NC(=O)[C@H](C)NC(=O)[C@@H](NC(=O)[C@H](CCC(N)=O)NC(C)=O)C(C)C)CSCc2cc3cc(c2)CSC[C@H](NC(=O)[C@H](Cc2ccc(O)cc2)NC1=O)C(=O)NCC(=O)N[C@H](C(N)=O)CSC3 (Ac-QVARQLACIYCGC-NH2; linker 8-11-13 via TBMB)	38%
CC[C@H](C)[C@H](NC(=O)[C@H](CCCNC(=N)N)NC(C)=O)C(=O)N[C@@H](C)C(=O)N[C@@H](CCCNC(=N)N)C(=O)N[C@@H](CC(C)C)C(=O)N[C@@H](CCC(=O)O)C(=O)N[C@@H](CCC(=O)O)C(=O)N[C@H]1CSCc2cc3cc(c2)CSC[C@H](NC(=O)[C@H](CCCCN)NC(=O)[C@H](Cc2ccc(O)cc2)NC1=O)C(=O)NCC(=O)N[C@H](C(N)=O)CSC3 (Ac-RIARLEECYKCGC-NH2; linker 8-11-13 via TBMB)	48%
Ac-AAAAKAAAAKAAAAKAW-NH2	48%
Ac-AAAAKAAAAKAW-NH2	17%
Ac-QVARQLAEIY-NH2	8%
Ac-RIARLEEKYK-NH2	17%
Ac-WAAAKAAAAKALAAIGV-NH2	37%
Ac-WAAAKAAAAKALAALGF-NH2	38%
Ac-WAAAKAAAAKALAALGI-NH2	52%
Ac-WAAAKAAAAKALAALGL-NH2	54%
Ac-WAAAKAAAAKALAALGV-NH2	44%
Ac-WAAAKAAAAKALAALGW-NH2	44%
Ac-WAAAKAAAAKALAALGY-NH2	45%
